Data taken from patent US20040091480A1 (Kyowa Kirin, published 2004).
Where a chain is given by its changes, count along the chain named. Each block holds one binder with its values, some of them ahead of it.

Assays:
[1] = target: T1, C-terminus-biotin labeled compound 1 (an N-terminus peptide of FGF-8) (human, C-terminus biotin label); test: BIAcore 2000, biotin FGF-8 peptide on SA chip, antibody in solution, RU compared; dissociation hardly observed
T1 construct: also called FGF-8 peptide
T1 peptide: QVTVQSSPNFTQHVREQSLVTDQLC
Method: In order to examine the activity of various anti-FGF-8 CDR-grafted antibodies obtained in the item 5 of Example 5 to bind to FGF-8 in more detail, activities of various anti-FGF-8 CDR-grafted antibodies to bind to FGF-8 were measured and compared as follows by using BIAcore 2000 (manufactured by BIACORE). The CHO/DG44-derived anti-FGF-8 chimeric antibody KM3034 obtained in the item 3(1) of Example 3 was used as a positive control.
Hereinbelow, HBS-EP (manufactured by Pharmacia) was used as the buffer solution for dilution of samples and during the measurement. First, a sensor tip SA (manufactured by BIACORE) was set, and 5 μl of a C-terminus-biotin labeled compound 1 (an N-terminus peptide of FGF-8; SEQ ID NO:17) prepared to a solution of 0.05 μg/ml was added thereto at a flow rate of […]. Thereafter, the tip surface was washed by adding 5 μl of 10 mmol/l Glycine-HCl buffer (pH 1.5) continuously twice. Immobilized amount of the FGF-8 peptide was 35 RU.
To the FGF-8 peptide immobilized flow cell, 60 μl of each antibody solution was added at a flow rate of 20 μl/minute, and then the dissociation reaction was monitored for 3 minutes. After the dissociation reaction, the tip surface was regenerated by adding 20 μl of 10 mmol/l Glycine-HCl buffer (pH 1.5) continuously twice. This cycle was carried out for antibody solutions of various concentrations (50 to 1.85 μg/ml), and a sensorgram at each concentration was obtained. The sensorgram of each antibody was made into a sensorgram of specific reaction by subtracting a sensorgram obtained using a chimeric antibody KM871 for GD3 [Cancer Immunol. Immunother., 36, 373 (1993)] as a negative control.

[2] = target: T2, BSA-compound 1 (Compound 1, human FGF-8 peptide, conjugated with bovine serum albumin) (human, conjugated to BSA through SMCC); test: ELISA on BSA-compound 1, positive control
T2 peptide: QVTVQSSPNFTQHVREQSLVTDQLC
Method: The conjugate prepared in the above was dispensed at 50 μl/well into a 96 well plate for ELISA (manufactured by Greiner) at a concentration of 0.5 to 1.0 μg/ml and allowed to stand for adsorption overnight at 4° C. After washing with PBS, 1% BSA-containing PBS (BSA-PBS) was added at 100 μl/well and allowed for blocking of remaining active groups to react at room temperature for 1 hour. After washing each well with 0.05% Tween-containing PBS (Tween-PBS), culture supernatants of transformants or purified antibodies were added at 50 μl/well and allowed to react at room temperature for 1 hour. After the reaction, each well was washed with Tween-PBS and then a peroxidase-labeled goat anti-human IgG (H & L) antibody solution (manufactured by American Qualex) diluted 3,000 to 6,000-folds with BSA-PBS was added as a secondary antibody solution at 50 μl/well and allowed to react at room temperature for 1 hour. […] Thereafter, absorbance at 415 nm (OD415) was measured.
The activity of various anti-FGF-8 CDR-grafted antibodies obtained in the item 4 of Example 4 to bind to FGF-8 was measured by the ELISA described in the item 2(6) of Example 3. […]

[3] = target: T3, human FGF-8 partial peptide (Sequence ID NO:1) cross-linked with thyroglobulin (human, cross-linked to thyroglobulin (THY) with glutaraldehyde); test: enzyme immunoassay, peptide-thyroglobulin conjugate coated on the plate
T3 construct: Coated on the plate as a thyroglobulin conjugate; also called THY-FGF-8 peptide antigen; FGF-8 peptide
T3 peptide: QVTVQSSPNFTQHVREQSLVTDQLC
Method: A conjugate obtained by cross-linking the human FGF-8 partial peptide shown in Sequence ID NO:1 with thyroglobulin in the following manner was used as the antigen for the assay. That is, 1 mg of the peptide was dissolved in 0.1 M ammonium acetate buffer and the solution was adjusted to 1 ml by adding 5 mg of THY which has been dissolved in advance in the same buffer. To this, while stirring, was added dropwise 540 μl of 0.02 M glutaraldehyde, followed by 5 hours of stirring at room temperature to effect the reaction. After the reaction, the reaction solution was dialyzed overnight against PBS and used as the antigen. A conjugate obtained in the same manner by cross-linking the peptide shown in Sequence ID NO:2 with THY was used as a reference antigen. […] After washing with Tween-PBS, a peroxidase-labeled rabbit anti-mouse immunoglobulin (manufactured by DAKO) was distributed in 50 μl portions into wells of the plate to carry out 1 hour of reaction at room temperature, the plate was again washed with Tween-PBS, and then color development was effected using an ABTS substrate [2,2-azinobis(3-ethylbenzothiazole-6-sulfonic acid)ammonium] solution and absorbance at OD₄₁₅ was measured (NJ 2001, Japan Intermed).

[4] = target: T2, BSA-compound 1 (Compound 1, human FGF-8 …); test: ELISA on BSA-compound 1
Method: The conjugate prepared in the above was dispensed at 50 μl/well into a 96 well plate for ELISA (manufactured by Greiner) at a concentration of 0.5 to 1.0 μg/ml and allowed to stand for adsorption overnight at 4° C. After washing with PBS, 1% BSA-containing PBS (BSA-PBS) was added at 100 μl/well and allowed for blocking of remaining active groups to react at room temperature for 1 hour. After washing each well with 0.05% Tween-containing PBS (Tween-PBS), culture supernatants of transformants or purified antibodies were added at 50 μl/well and allowed to react at room temperature for 1 hour. After the reaction, each well was washed with Tween-PBS and then a peroxidase-labeled goat anti-human IgG (H & L) antibody solution (manufactured by American Qualex) diluted 3,000 to 6,000-folds with BSA-PBS was added as a secondary antibody solution at 50 μl/well and allowed to react at room temperature for 1 hour. After the reaction and subsequent washing with Tween-PBS, an ABTS substrate solution [a solution prepared by dissolving 0.55 g of 2,2′-azinobis(3-ethylbenzothiazoline-6-sulfonic acid) ammonium in 1 L of 0.1 M citrate buffer (pH 4.2) and adding 1 μl/ml hydrogen peroxide just before use] was added at 50 μl/well for color development, and the reaction was stopped by adding 5% SDS solution at 50 μl/well. Thereafter, absorbance at 415 nm (OD415) was measured.
The activity of various anti-FGF-8 CDR-grafted antibodies obtained in the item 4 of Example 4 to bind to FGF-8 was measured by the ELISA described in the item 2(6) of Example 3. The YB2/0-derived anti-FGF-8 chimeric antibody KM3334 obtained in the item 3(2) of Example 3 was used as a positive control.

[5] = target: T4, FGF-8 (manufactured by R&D) (UniProt P55075-3 23-215, limits assumed); test: cell-based or functional assay
T4 sequence (looked up): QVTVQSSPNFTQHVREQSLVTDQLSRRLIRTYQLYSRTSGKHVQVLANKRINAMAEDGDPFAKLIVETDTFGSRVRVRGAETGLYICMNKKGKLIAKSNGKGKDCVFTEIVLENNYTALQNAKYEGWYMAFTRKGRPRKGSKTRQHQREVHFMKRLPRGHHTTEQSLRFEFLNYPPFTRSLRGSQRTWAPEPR

[6] = target: T1, C-terminus-biotin labeled compound 1 …; test: BIAcore 2000, biotin FGF-8 peptide on SA chip, Example 6, RU compared; dissociation hardly observed

binding result [1]: binds
B1: anti-FGF-8 CDR-grafted antibody HV0LV3-1/CHO (antibody, V domains shown)
VH: QVQLVQSGAEVKKPGASVKVSCKASGYTFTDYYLNWVRQAPGQGLEWMGEIDPGSDSIYYNENLEGRVTITADTSTSTAYMELSSLRSEDTAVYYCARYGYSRYDVRFVYWGQGTLVTVSS
VL: DVVMTQSPLSLPVTPGEPASISCRSSQSLVHSNGRTYLEWYLQKPGQSPQVLIYKVSNRISGVPDRFSGSGSGTDFTLKISRVEAEDVGVYFCFQGSHVPYTFGQGTKVEIK
notes: HV.0 + LV.3-1, human gamma1/kappa constant regions, made in CHO/DG44 cells; also called KM8036; FERM BP-8083

binding result [2]: binds
B2: anti-FGF-8 chimeric antibody KM3334 (antibody, V domains shown)
VH: QVQLQQSGAEVARPGASVKLSCKASGYTFTDYYLNWVKQRSGQGLEWIGEIDPGSDSIYYNENLEGRATLTADKSSSTAYMQLNSLTSEDSAVYFCARYGYSRYDVRFVYWGQGTLVTVST
VL: B1 VL with V3L, S7T, T14S, P15L, E17D, P18Q, Q50K, V88L, Q105G, V109L

binding result [1]: binds
B3: anti-FGF-8 chimeric antibody KM3034 (antibody, V domains shown)
VH: B2 VH
VL: B1 VL with V3L, S7T, T14S, P15L, E17D, P18Q, Q50K, V88L, Q105G, V109L
notes: Human chimeric antibody, human gamma1 CH and kappa CL (vector pKANTEX93), made in CHO/DG44 cells; also called FERM BP-7836

binding result [3]: binds
B4: anti-FGF-8 monoclonal antibody KM 1334 (antibody, mouse IgG1, V domains shown)
VH: B2 VH
VL: B1 VL with V3L, S7T, T14S, P15L, E17D, P18Q, Q50K, V88L, Q105G, V109L
notes: Mouse IgG1, kappa L chain, purified from ascites; also called anti-FGF-8 mouse antibody KM1334; antibody of hybridoma FERM BP-5451

binding result [4]: binds
B5: anti-FGF-8 CDR-grafted antibody HV0LV6 (YB2/0 cell-derived) (antibody, V domains shown)
VH: B1 VH
VL: B1 VL with T14S, P15L, Q50K
notes: also called KM8037; FERM BP-8084

FGF-8 neutralization activity, FGF-8-dependent growth of SC-3 cells [5]: ~0.5 fold of the activity of KM3034
binding result [6]: binds
B6: anti-FGF-8 CDR-grafted antibody HV0LV4-3/CHO (antibody, V domains shown)
VH: B1 VH
VL: B1 VL with V2I, T14S, P15L
notes: HV.0 + LV.4-3, human gamma1/kappa constant regions, made in CHO/DG44 cells; also called KM8035

binding result [4]: binds
B7: anti-FGF-8 CDR-grafted antibody HV0LV0 (YB2/0 cell-derived) (antibody, V domains shown)
VH: B1 VH
VL: B1 VL with V2I, V51L, F92Y

binding result [1]: binds
B8: anti-FGF-8 CDR-grafted antibody HV0LV0/CHO (antibody, V domains shown)
VH: B1 VH
VL: B1 VL with V2I, V51L, F92Y

binding result [1]: binds
B9: anti-FGF-8 CDR-grafted antibody HV0LV6/CHO (antibody, V domains shown)
VH: B1 VH
VL: B1 VL with T14S, P15L, Q50K
notes: also called KM8034

FGF-8 neutralization activity, FGF-8-dependent growth of SC-3 cells [5]: ~0.5 fold of the activity of KM3034
B10: anti-FGF-8 CDR-grafted antibody HV0LV3-3/CHO (antibody, V domains shown)
VH: B1 VH
VL: B1 VL with V2I, T14S, P15L, F92Y

binding result [4]: binds
B11: anti-FGF-8 CDR-grafted antibody HV6LV6 (YB2/0 cell-derived) (antibody, V domains shown)
VH: B1 VH with K12A, K13R, A40R, P41S, M48I, Y95F
VL: B1 VL with T14S, P15L, Q50K
